Experiments:
[1] = biological target: human Y2 receptor (human) (UniProt P49146); experiment: cell-based or functional assay
[2] = biological target: human Y2 receptor (human) (UniProt P49146); experiment: RBA: displacement of [125I]-PYY from hY2R/CHO membranes

Sequence of human Y2 receptor (human) (P49146 whole entry): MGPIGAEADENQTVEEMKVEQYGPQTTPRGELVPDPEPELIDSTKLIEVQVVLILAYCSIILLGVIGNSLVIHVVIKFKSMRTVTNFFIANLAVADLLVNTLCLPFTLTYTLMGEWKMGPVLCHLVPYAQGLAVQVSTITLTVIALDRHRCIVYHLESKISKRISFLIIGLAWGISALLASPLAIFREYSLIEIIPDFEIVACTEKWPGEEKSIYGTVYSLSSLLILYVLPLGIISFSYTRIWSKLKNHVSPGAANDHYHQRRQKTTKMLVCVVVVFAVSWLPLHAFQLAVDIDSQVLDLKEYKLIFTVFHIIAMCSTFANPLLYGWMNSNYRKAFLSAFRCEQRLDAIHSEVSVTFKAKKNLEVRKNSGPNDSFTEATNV

Row | GBA EC50 Ratio ([35S]GTPγS binding) (EC50 compound/EC50 PYY(3-36)) [1] | IC50 Ratio (IC50 compound/IC50 PYY(3-36)) [2] | Substance
1 | 1.3 | 1 | Ac-[D-Pro24, Pya(4)26, Cha27,36, Aib28,31, Lys(Hexyl)30]-PYY(23-36) (peptide)
2 | 0.78 | 0.54 | 2-Methylbutanoyl-[D-Pro24, Pya(4)26, Cha27,36, Aib28,31, Lys30]-PYY(23-36) (peptide)
3 | 1.2 | 0.95 | [(1S)-1-Carboxy-2-(4-hydroxyphenyl)ethyl]carbamoyl-[D-Pro24, Pya(4)26, Cha27,36, Aib28,31, Lys30]-PYY(23-36) (peptide)
4 | 1 | 0.31 | Ac-[D-Pro24, Pya(4)26, Cha27,36, Iva28,31, Lys30]-PYY(23-36) (peptide)
5 | 0.61 | 0.52 | Tetrahydro-2H-pyran-4-yl-carbamoyl-[D-Pro24, Pya(4)26, Cha27,36, Aib28,31, Lys30]-PYY(23-36) (peptide)
6 | 1.6 | 0.7 | Ac-[D-Pro24, Pya(4)26, Cha27,36, D-Iva28,31, Lys30]-PYY(23-36) (peptide)
7 | 1.6 | 1.3 | 4-Pyridinecarbonyl-[D-Hyp24, Iva25,28, Pya(4)26, Cha27,36, Lys30, Aib31]-PYY(23-36) (peptide)
8 | 1.3 | 0.99 | 4-Imidazolecarbonyl-[D-Hyp24, Iva25,28, Pya(4)26, Cha27,36, Lys30, Aib31]-PYY(23-36) (peptide)
9 | 1 | 0.65 | 4-Imidazolecarbonyl-[D-Hyp24, Iva25, Pya(4)26, Cha27,36, αMePhe28, Lys30, Aib31]-PYY(23-36) (peptide)
10 | 0.82 | 0.82 | [(1S)-1-Carboxy-3-methylbutyl]carbamoyl-[D-Pro24, Pya(4)26, Cha27,36, Aib28,31, Lys30]-PYY(23-36) (peptide)
11 | 0.79 | 0.36 | Ac-[D-Pro24, Pya(4)26, Cha27,36, Aib28,31, Har30]-PYY(23-36) (peptide)
12 | 1.2 | 0.91 | Ac-[D-Pro24, Pya(4)26, Cha27, Aib28,31, Lys30, Phe(3Me)36]-PYY(23-36) (peptide)

— patent US20120172293A1 (Takeda / Millennium, published 2012)
